We go through 7 substances from patent publication US20050042747A1, “Hivgp120-induced bob/gpr15 activation” (priority 2001, published 2005).

For one experiment, the target named is CXCR4 (UniProt P61073). As to the kind of experiment: quantitative cellular enzyme-linked assay on HT-29-D4 cells.
The target in another experiment is GPR15/Bob (human) (UniProt P49685). As to the kind of experiment: cell-based or functional assay.
A further experiment addresses CCR5 (UniProt P51681). As to the kind of experiment: cell-based or functional assay.

Sequence of GPR15/Bob (human) (P49685 whole entry): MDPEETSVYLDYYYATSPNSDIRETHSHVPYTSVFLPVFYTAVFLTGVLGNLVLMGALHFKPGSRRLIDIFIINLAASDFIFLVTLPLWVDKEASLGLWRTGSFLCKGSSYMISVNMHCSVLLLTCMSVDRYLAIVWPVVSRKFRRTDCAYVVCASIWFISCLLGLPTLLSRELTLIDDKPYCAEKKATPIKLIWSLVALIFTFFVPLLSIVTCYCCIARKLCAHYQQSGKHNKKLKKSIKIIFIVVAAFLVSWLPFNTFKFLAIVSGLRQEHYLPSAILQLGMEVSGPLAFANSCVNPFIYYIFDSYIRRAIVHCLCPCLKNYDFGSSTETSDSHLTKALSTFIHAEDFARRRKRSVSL

In the experiment with CXCR4, “anti-CXCR4 mouse monoclonal antibody (clone 12G5)” gave a concentration giving saturation binding of 20 µg/mL.
In the experiment with GPR15/Bob (human), “gp120(IIIB), purified from HIV-1(IIIB) (from UniProt P03375 33-511) (ligand)” displayed a relative TEER 20 min after the addition of gp120, HT-29-D4 cells (relative TEER) of 1.6.
On to gp120(SEN) (ligand), for which the relative TEER 20 min after the addition of gp120, HT-29-D4 cells (relative TEER) with GPR15/Bob (human) was found to be 2.52.
As for gp120CM235 (ligand), in the experiment with GPR15/Bob (human), the least gp120 concentration inducing calcium signaling, Bob-transfected Ghost (3) cells turned out to be 8 pM; the minimal concentration causing calcium signaling in HT-29 cells turned out to be 2.5 nM; the minimal gp120 concentration giving a calcium flux, transfected Ghost (3) cells came out at 10 pM.
For “gp120MN (from UniProt P05877 32-513) (ligand)”, the calcium signaling in HT-29 cells with GPR15/Bob (human) is greater than 10 nM.
On to “gp120SF2 (from UniProt P03378 32-509) (ligand)”, for which, in the experiment with GPR15/Bob (human), the calcium signaling in HT-29 cells is greater than 10 nM.
With gp12093TH975 (ligand), the calcium signaling in HT-29 cells with GPR15/Bob (human) was greater than 10 nM. The minimal gp120 concentration giving a calcium flux, transfected Ghost (3) cells in the experiment with CCR5 amounted to 100 nM.
